Test results published in patent publication US20140044713A1 (KONINKLIJKE NEDERLANDSE AKADEMIE VAN WETENSCHAPPEN, published 2014).

B1: double (Flag-HA)-tagged version of human Dkk1 (Dkk1-FH) (ligand, UniProt O94907 32-266, looked up)
chain: TLNSVLNSNAIKNLPPPLGGAAGHPGSAVSAAPGILYPGGNKYQTIDNYQPYPCAEDEECGTDEYCASPTRGGDAGVQICLACRKRRKRCMRHAMCCPGNYCKNGICVSSDQNHFRGEIEETITESFGNDHSTLDGYSRRTTLSSKMYHTKGQEGSVCLRSSDCASGLCCARHFWSKICKPVLKEGQVCTKHRRKGSHGLEIFQRCYCGEGLSCRIQKDHHQASNSSRLHTCQRH
notes: not shown: Flag-HA double tag
B2: FLAG/HA-tagged Lgr5 (receptor, human, UniProt O75473 22-907, looked up)
chain: GSSPRSGVLLRGCPTHCHCEPDGRMLLRVDCSDLGLSELPSNLSVFTSYLDLSMNNISQLLPNPLPSLRFLEELRLAGNALTYIPKGAFTGLYSLKVLMLQNNQLRHVPTEALQNLRSLQSLRLDANHISYVPPSCFSGLHSLRHLWLDDNALTEIPVQAFRSLSALQAMTLALNKIHHIPDYAFGNLSSLVVLHLHNNRIHSLGKKCFDGLHSLETLDLNYNNLDEFPTAIRTLSNLKELGFHSNNIRSIPEKAFVGNPSLITIHFYDNPIQFVGRSAFQHLPELRTLTLNGASQITEFPDLTGTANLESLTLTGAQISSLPQTVCNQLPNLQVLDLSYNLLEDLPSFSVCQKLQKIDLRHNEIYEIKVDTFQQLLSLRSLNLAWNKIAIIHPNAFSTLPSLIKLDLSSNLLSSFPITGLHGLTHLKLTGNHALQSLISSENFPELKVIEMPYAYQCCAFGVCENAYKISNQWNKGDNSSMDDLHKKDAGMFQAQDERDLEDFLLDFEEDLKALHSVQCSPSPGPFKPCEHLLDGWLIRIGVWTIAVLALTCNALVTSTVFRSPLYISPIKLLIGVIAAVNMLTGVSSAVLAGVDAFTFGSFARHGAWWENGVGCHVIGFLSIFASESSVFLLTLAALERGFSVKYSAKFETKAPFSSLKVIILLCALLALTMAAVPLLGGSKYGASPLCLPLPFGEPSTMGYMVALILLNSLCFLMMTIAYTKLYCNLDKGDLENIWDCSMVKHIALLLFTNCILNCPVAFLSFSSLINLTFISPEVIKFILLVVVPLPACLNPLLYILFNPHFKEDLVSLRKQTYVWTRSKHPSLMSINSDDVEKQSCDSTQALVTFTSSSITYDLPPSSVPSPAYPVTESCHLSSVAFVPCL
notes: whole, on cells; also called Lgr5 bait; FH-tagged human Lgr5; not shown: FLAG/HA double tag
B3: tagged Frizzled5 (Frz5) (receptor, UniProt Q13467 27-585, looked up)
chain: ASKAPVCQEITVPMCRGIGYNLTHMPNQFNHDTQDEAGLEVHQFWPLVEIQCSPDLRFFLCSMYTPICLPDYHKPLPPCRSVCERAKAGCSPLMRQYGFAWPERMSCDRLPVLGRDAEVLCMDYNRSEATTAPPRPFPAKPTLPGPPGAPASGGECPAGGPFVCKCREPFVPILKESHPLYNKVRTGQVPNCAVPCYQPSFSADERTFATFWIGLWSVLCFISTSTTVATFLIDMERFRYPERPIIFLSACYLCVSLGFLVRLVVGHASVACSREHNHIHYETTGPALCTIVFLLVYFFGMASSIWWVILSLTWFLAAGMKWGNEAIAGYAQYFHLAAWLIPSVKSITALALSSVDGDPVAGICYVGNQNLNSLRGFVLGPLVLYLLVGTLFLLAGFVSLFRIRSVIKQGGTKTDKLEKLMIRIGIFTLLYTVPASIVVACYLYEQHYRESWEAALTCACPGHDTGQPRAKPEYWVLMLKYFMCLVVGITSGVWIWSGKTVESWRRFTSRCCCRPRRGHKSGGAMAAGDYPEASAALTGRTGPPGPAATYHKQVSLSHV
notes: whole, on cells; also called double-tagged Frizzled5; Frz5 bait; not shown: FLAG/HA tag
B4: Lgr1 (receptor, not shown: small tags and cut ends)
chain: CHHRICHCSNRVFLCQESKVTEIPSDLPRNAIELRFVLTKLRVIQKGAFSGFGDLEKIEISQNDVLEVIEADVFSNLPKLHEIRIEKANNLLYINPEAFQNLPNLQYLLISNTGIKHLPDVHKIHSLQKVLLDIQDNINIHTIERNSFVGLSFESVILWLNKNGIQEIHNCAFNGTQLDELNLSDNNNLEELPNDVFHGASGPVILDISRTRIHSLPSYGLENLKKLRARSTYNLKKLPTLEKLVALMEASLTYPSHCCAFANWRRQISELHPICNKSILRQEVDYMTQARGQRSSLAEDNESSYSRGFDMTYTEFDYDLCNEVVDVTCSPKPDAFNPCEDIMGYNILRVLIWFISILAITGNIIVLVILTTSQYKLTVPRFLMCNLAFADLCIGIYLLLIASVDIHTKSQYHNYAIDWQTGAGCDAAGFFTVFASELSVYTLTAITLERWHTITHAMQLDCKVQLRHAASVMVMGWIFAFAAALFPIFGISSYMKVSICLPMDIDSPLSQLYVMSLLVLNVLAFVVICGCYIHIYLTVRNPNIVSSSSDTRIAKRMAMLIFTDFLCMAPISFFAISASLKVPLITVSKAKILLVLFHPINSCANPFLYAIFTKNFRRDFFILLSKCGCYEMQAQIYRTETSSTVHNTHPRNGHCSSAPRVTSGSTYILVPLSHLAQN
notes: Control lane of the Rspo1-Fc pull-down
B5: Frz6 (endogenous, LS174T cells) (receptor, human, UniProt O60353 19-706, looked up)
chain: HSLFTCEPITVPRCMKMAYNMTFFPNLMGHYDQSIAAVEMEHFLPLANLECSPNIETFLCKAFVPTCIEQIHVVPPCRKLCEKVYSDCKKLIDTFGIRWPEELECDRLQYCDETVPVTFDPHTEFLGPQKKTEQVQRDIGFWCPRHLKTSGGQGYKFLGIDQCAPPCPNMYFKSDELEFAKSFIGTVSIFCLCATLFTFLTFLIDVRRFRYPERPIIYYSVCYSIVSLMYFIGFLLGDSTACNKADEKLELGDTVVLGSQNKACTVLFMLLYFFTMAGTVWWVILTITWFLAAGRKWSCEAIEQKAVWFHAVAWGTPGFLTVMLLAMNKVEGDNISGVCFVGLYDLDASRYFVLLPLCLCVFVGLSLLLAGIISLNHVRQVIQHDGRNQEKLKKFMIRIGVFSGLYLVPLVTLLGCYVYEQVNRITWEITWVSDHCRQYHIPCPYQAKAKARPELALFMIKYLMTLIVGISAVFWVGSKKTCTEWAGFFKRNRKRDPISESRRVLQESCEFFLKHNSKVKHKKKHYKPSSHKLKVISKSMGTSTGATANHGTSAVAITSHDYLGQETLTEIQTSPETSMREVKADGASTPRLREQDCGEPASPAASISRLSGEQVDGKGQAGSVSESARSEGRISPKSDITDTGLAQSNNLQVPSSSEPSSLKGSTSLLVHPVSGVRKEQGGGCHSDT
notes: whole, on cells
B6: FBXW4 (other, not shown: small tags and cut ends)
chain: MAAAAGEEEEEEEAARESAARPAAGPALWRLPEELLLLICSYLDMRALGRLAQVCRWLRRFTSCDLLWRRIARASLNSGFTRLGTDLMTSVPVKERVKVSQNWRLGRCREGILLKWRCSQMPWMQLEDDSLYISQANFILAYQFRPDGASLNRRPLGVFAGHDEDVCHFVLANSHIVSAGGDGKIGIHKIHSTFTVKYSAHEQEVNCVDCKGGIIVSGSRDRTAKVWPLASGRLGQCLHTIQTEDRVWSIAISPLLSSFVTGTACCGHFSPLRIWDLNSGQLMTHLGSDFPPGAGVLDVMYESPFTLLSCGYDTYVRYWDLRTSVRKCVMEWEEPHDSTLYCLQTDGNHLLATGSSYYGVVRLWDRRQRACLHAFPLTSTPLSSPVYCLRLTTKHLYAALSYNLHVLDFQNP
notes: TAP-MS bait
B7: FBXW5 (other, not shown: small tags and cut ends)
chain: MDEGGTPLLPDSLVYQIFLSLGPADVLAAGLVCRQWQAVSRDEFLWREQFYRYYQVARDVPRHPAAMSWYEEFQRLYDTVPCVEVQTLREHTDQVLHLSFSHSGYQFASCSKDCTVKIWSNDLTISLLHSADMRPYNWSYTQFSQFNKDDSLLLASGVFLGPHNSSSGEIAVISLDSFALLSRVRNKPYDVFGCWLTETSLISGNLHRIGDITSCSVLWLNNAFQDVESENVNVVKRLFKIQNLNASTVRTVMVADCSRFDSPDLLLEAGDPATSPCRIFDLGSDNEEVVAGPAPAHAKEGLRHFLDRVLEGRAQPQLSERMLETKVAELLAQGHTKPPERSATGAKSKYLIFTTGCLTYSPHQIGIKQILPHQMTTAGPVLGEGRGSDAFFDALDHVIDIHGHIIGMGLSPDNRYLYVNSRAWPNGAVVADPMQPPPIAEEIDLLVFDLKTMREVRRALRAHRAYTPNDECFFIFLDVSRDFVASGAEDRHGYIWDRHYNICLARLRHEDVVNSVVFSPQEQELLLTASDDATIKAWRSPRTMRVLQAPRPRPRTFFSWLASQRR
notes: TAP-MS bait

Assays:
[1] = biological target: T1, Lgr4 (endogenous, or expression construct whose tag is not stated) (human, UniProt Q9BXB1 25-951); assay: TAP (anti-FLAG, anti-HA) + mass spectrometry, 293T cells incubated with the soluble tagged bait, Exp 8
T1 construct: whole, on cells; Endogenous protein of HEK293T / LS174T cells in TAP-MS; also called endogenous Lgr4
Description: (§1) Left panel (Exps 1-7): HEK293T cells were transiently transfected, and LS174T cells were stably, transfected with the indicated tagged proteins. Right panel (Exps 8-9): HEK293T cells were incubated with the indicated tagged soluble proteins at 1 μg/ml. Sequential immunoprecipitation was performed by anti-FLAG and anti-HA antibodies and the associated complexes were analysed by mass spectrometry. Number of assigned spectra, number of unique peptides and the MASCOT Protein Score are given for selected identified proteins.

[2] = biological target: T2, Frz7 (endogenous, LS174T cells) (human, UniProt O75084 33-574); assay: TAP (anti-FLAG, anti-HA) + mass spectrometry, bait stably expressed in LS174T cells, Exp 3-6
T2 construct: whole, on cells
Description: as §1

[3] = biological target: B5; assay: TAP (anti-FLAG, anti-HA) + mass spectrometry, bait stably expressed in LS174T cells, Exp 7
Description: as §1

[4] = biological target: T2, Frz7 (endogenous, LS174T cells); assay: as above
Description: as §1

[5] = biological target: T3, Rspo1-Fc fusion protein (Homo sapiens (Human), UniProt Q2MKA7 21-263, limits assumed); assay: HEK293T cells transfected with the tagged Lgr, incubated with Rspo1-Fc, protein G immunoprecipitation, anti-FLAG Western blot
T3 construct: also called Rspondin1 IgFc fusion protein; not shown: Fc (IgFc) part
Text: FIG. 7A: Rspondin1 binds to Lgr4, Lgr5 and Lgr6. […] Bottom: Input of tagged proteins.

[6] = biological target: T4, FLAG/HA-tagged Lgr4 (human, UniProt Q9BXB1 25-951); assay: TAP (anti-FLAG, anti-HA) + mass spectrometry, bait stably expressed in LS174T cells, Exp 2
T4 construct: whole, on cells; also called Lgr4 bait; FH-tagged human Lgr4; not shown: FLAG/HA double tag
Description: as §1

[7] = biological target: T1, Lgr4 (endogenous, or expression …); assay: TAP + mass spectrometry, HEK293 cells
[8] = biological target: T5, LRP5 (endogenous) (human, UniProt O75197 32-1615); assay: TAP + mass spectrometry, HEK293 cells
T5 construct: whole, on cells

[9] = biological target: T6, LRP6 (endogenous) (human, UniProt O75581 20-1613); assay: TAP + mass spectrometry, HEK293 cells
T6 construct: whole, on cells
T6 sequence (O75581 20-1613): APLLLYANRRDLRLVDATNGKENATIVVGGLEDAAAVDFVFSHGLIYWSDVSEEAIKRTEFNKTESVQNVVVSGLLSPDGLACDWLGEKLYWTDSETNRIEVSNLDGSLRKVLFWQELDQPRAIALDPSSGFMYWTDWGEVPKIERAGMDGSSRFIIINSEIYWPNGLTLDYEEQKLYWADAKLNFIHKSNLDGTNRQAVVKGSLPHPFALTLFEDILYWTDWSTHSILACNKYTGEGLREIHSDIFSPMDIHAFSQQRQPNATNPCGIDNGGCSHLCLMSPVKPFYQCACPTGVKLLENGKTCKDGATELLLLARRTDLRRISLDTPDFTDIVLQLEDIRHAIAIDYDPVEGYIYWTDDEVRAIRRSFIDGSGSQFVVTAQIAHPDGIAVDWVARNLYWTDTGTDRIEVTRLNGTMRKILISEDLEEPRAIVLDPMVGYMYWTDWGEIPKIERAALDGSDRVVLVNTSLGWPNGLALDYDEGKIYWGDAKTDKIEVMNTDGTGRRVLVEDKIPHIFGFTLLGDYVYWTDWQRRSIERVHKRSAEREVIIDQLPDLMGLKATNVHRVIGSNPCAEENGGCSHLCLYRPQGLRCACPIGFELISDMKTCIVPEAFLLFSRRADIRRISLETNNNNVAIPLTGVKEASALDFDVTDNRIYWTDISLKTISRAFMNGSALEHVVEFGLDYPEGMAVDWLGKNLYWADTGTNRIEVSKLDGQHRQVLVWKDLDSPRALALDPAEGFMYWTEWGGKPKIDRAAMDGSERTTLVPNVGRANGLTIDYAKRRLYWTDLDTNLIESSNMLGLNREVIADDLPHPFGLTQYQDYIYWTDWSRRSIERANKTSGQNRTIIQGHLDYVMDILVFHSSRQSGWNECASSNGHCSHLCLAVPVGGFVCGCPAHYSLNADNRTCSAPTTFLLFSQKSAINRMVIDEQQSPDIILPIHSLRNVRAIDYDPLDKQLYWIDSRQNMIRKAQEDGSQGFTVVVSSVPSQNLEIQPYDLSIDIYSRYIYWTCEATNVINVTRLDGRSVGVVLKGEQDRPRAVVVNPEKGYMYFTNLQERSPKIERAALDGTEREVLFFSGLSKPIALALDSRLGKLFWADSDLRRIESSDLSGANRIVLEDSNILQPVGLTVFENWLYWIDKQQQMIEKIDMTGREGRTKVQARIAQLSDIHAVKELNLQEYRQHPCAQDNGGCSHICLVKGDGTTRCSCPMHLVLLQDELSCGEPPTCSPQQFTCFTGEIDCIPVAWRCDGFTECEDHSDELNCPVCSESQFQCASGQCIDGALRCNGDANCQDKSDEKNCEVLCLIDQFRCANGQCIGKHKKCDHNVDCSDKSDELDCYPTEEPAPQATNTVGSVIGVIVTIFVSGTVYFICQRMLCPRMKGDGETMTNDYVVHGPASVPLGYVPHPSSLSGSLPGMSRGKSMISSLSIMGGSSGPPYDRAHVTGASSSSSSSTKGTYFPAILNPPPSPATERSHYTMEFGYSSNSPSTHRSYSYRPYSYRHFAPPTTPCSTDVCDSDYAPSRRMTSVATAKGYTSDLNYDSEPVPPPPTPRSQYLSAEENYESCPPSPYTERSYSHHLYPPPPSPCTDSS

T5 sequence (O75197 32-1615): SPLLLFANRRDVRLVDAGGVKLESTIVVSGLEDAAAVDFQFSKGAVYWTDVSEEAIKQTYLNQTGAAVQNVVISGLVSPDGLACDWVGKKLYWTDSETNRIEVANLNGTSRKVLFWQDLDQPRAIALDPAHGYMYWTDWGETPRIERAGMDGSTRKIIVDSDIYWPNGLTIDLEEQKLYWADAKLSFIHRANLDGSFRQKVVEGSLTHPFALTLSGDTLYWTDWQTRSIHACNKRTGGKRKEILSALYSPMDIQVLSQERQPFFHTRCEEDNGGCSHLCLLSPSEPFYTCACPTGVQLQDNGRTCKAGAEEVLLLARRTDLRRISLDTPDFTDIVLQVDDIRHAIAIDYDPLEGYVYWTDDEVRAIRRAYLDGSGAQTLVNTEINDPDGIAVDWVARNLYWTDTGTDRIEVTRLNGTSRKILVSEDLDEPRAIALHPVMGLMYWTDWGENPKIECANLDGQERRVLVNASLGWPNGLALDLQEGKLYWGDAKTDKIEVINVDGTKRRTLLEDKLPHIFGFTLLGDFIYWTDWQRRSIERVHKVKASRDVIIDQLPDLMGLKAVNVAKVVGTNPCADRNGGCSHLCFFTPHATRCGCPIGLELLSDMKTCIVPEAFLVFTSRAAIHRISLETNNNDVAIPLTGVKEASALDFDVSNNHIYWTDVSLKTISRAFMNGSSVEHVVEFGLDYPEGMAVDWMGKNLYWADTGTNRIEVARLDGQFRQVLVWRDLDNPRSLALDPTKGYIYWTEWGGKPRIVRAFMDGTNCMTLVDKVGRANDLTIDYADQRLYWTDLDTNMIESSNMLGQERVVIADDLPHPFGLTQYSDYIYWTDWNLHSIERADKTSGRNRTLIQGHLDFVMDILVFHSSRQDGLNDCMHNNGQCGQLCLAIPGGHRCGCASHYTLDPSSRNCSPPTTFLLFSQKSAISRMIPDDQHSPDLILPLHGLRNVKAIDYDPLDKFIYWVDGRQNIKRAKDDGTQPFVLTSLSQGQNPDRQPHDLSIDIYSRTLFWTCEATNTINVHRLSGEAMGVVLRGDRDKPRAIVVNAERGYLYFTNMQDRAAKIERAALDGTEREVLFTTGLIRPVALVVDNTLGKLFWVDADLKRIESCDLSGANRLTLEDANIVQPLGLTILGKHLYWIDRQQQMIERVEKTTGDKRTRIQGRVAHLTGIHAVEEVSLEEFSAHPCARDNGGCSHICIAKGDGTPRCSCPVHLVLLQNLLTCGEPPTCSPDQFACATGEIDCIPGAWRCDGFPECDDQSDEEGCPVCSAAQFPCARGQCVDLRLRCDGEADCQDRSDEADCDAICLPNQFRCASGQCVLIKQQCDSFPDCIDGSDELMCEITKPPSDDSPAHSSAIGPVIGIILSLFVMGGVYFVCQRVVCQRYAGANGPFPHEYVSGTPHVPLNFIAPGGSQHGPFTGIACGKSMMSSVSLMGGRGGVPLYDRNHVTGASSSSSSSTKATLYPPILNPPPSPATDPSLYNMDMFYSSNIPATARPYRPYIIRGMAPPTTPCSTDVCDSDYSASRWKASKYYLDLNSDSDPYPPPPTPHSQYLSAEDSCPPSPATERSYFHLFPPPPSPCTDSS
T3 sequence (Q2MKA7 21-263 limits assumed): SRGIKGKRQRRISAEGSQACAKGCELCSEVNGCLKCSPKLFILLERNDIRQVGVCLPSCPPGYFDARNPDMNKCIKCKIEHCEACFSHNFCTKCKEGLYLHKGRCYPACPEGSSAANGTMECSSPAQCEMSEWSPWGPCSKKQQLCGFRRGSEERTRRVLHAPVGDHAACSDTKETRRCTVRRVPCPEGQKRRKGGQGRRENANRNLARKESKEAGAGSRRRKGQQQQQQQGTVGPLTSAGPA

B1
binding result [1]: no binding (tested: 1 µg/ml)

B2
binding result [2]: no binding

B3
binding result [3]: no binding | binding result [4]: no binding

B4
binding result [5]: no binding (tested: ~1 µg/ml)

B5
binding result [6]: no binding

B6
binding result [7]: no binding | binding result [8]: no binding | binding result [9]: no binding

B7
binding result [7]: no binding | binding result [8]: no binding | binding result [9]: no binding
